{
  "source": "patent US20190233493A1",
  "about": "(Sanofi, published 2019)",
  "binders": {"B1": {"name": "peptide of SEQ ID NO: 35 (peptide)", "peptide": "Ac-LEGREKVRAK(Ac)I[Aib][Aib]EGMSTWS[Aib]RK[PEG12]K([γGlu-γGlu-γGlu-Stearoyl])-NH2", "SMILES": "CCCCCCCCCCCCCCCCCC(=O)N[C@@H](CCC(=O)N[C@@H](CCC(=O)N[C@@H](CCC(=O)NCCCC[C@H](NC(=O)CCOCCOCCOCCOCCOCCOCCOCCOCCOCCOCCOCCOCCNC(=O)[C@H](CCCCN)NC(=O)[C@H](CCCNC(=N)N)NC(=O)C(C)(C)NC(=O)[C@H](CO)NC(=O)[C@H](Cc1c[nH]c2ccccc12)NC(=O)[C@@H](NC(=O)[C@H](CO)NC(=O)[C@H](CCSC)NC(=O)CNC(=O)[C@H](CCC(=O)O)NC(=O)C(C)(C)NC(=O)C(C)(C)NC(=O)[C@@H](NC(=O)[C@H](CCCCNC(C)=O)NC(=O)[C@H](C)NC(=O)[C@H](CCCNC(=N)N)NC(=O)[C@@H](NC(=O)[C@H](CCCCN)NC(=O)[C@H](CCC(=O)O)NC(=O)[C@H](CCCNC(=N)N)NC(=O)CNC(=O)[C@H](CCC(=O)O)NC(=O)[C@H](CC(C)C)NC(C)=O)C(C)C)[C@@H](C)CC)[C@@H](C)O)C(N)=O)C(=O)O)C(=O)O)C(=O)O"}, "B2": {"name": "peptide of SEQ ID NO: 4 (peptide)", "peptide": "Ac-ELEGREKVRAAI[Aib][Aib]EG[Nle]STWS[Aib]RKK([γGlu-γGlu-Palmitoyl])-NH2", "SMILES": "CCCCCCCCCCCCCCCC(=O)N[C@@H](CCC(=O)N[C@@H](CCC(=O)NCCCC[C@H](NC(=O)[C@H](CCCCN)NC(=O)[C@H](CCCNC(=N)N)NC(=O)C(C)(C)NC(=O)[C@H](CO)NC(=O)[C@H](Cc1c[nH]c2ccccc12)NC(=O)[C@@H](NC(=O)[C@H](CO)NC(=O)[C@H](CCCC)NC(=O)CNC(=O)[C@H](CCC(=O)O)NC(=O)C(C)(C)NC(=O)C(C)(C)NC(=O)[C@@H](NC(=O)[C@H](C)NC(=O)[C@H](C)NC(=O)[C@H](CCCNC(=N)N)NC(=O)[C@@H](NC(=O)[C@H](CCCCN)NC(=O)[C@H](CCC(=O)O)NC(=O)[C@H](CCCNC(=N)N)NC(=O)CNC(=O)[C@H](CCC(=O)O)NC(=O)[C@H](CC(C)C)NC(=O)[C@H](CCC(=O)O)NC(C)=O)C(C)C)[C@@H](C)CC)[C@@H](C)O)C(N)=O)C(=O)O)C(=O)O"}, "B3": {"name": "peptide of SEQ ID NO: 36 (peptide)", "peptide": "Ac-LEGREKVR[Aib]K(Ac)I[Aib][Aib]EG[Nle]STWS[Aib]RKK(Ac)[PEG12]K([γGlu-γGlu-γGlu-Stearoyl])-NH2", "SMILES": "CCCCCCCCCCCCCCCCCC(=O)N[C@@H](CCC(=O)N[C@@H](CCC(=O)N[C@@H](CCC(=O)NCCCC[C@H](NC(=O)CCOCCOCCOCCOCCOCCOCCOCCOCCOCCOCCOCCOCCNC(=O)[C@H](CCCCNC(C)=O)NC(=O)[C@H](CCCCN)NC(=O)[C@H](CCCNC(=N)N)NC(=O)C(C)(C)NC(=O)[C@H](CO)NC(=O)[C@H](Cc1c[nH]c2ccccc12)NC(=O)[C@@H](NC(=O)[C@H](CO)NC(=O)[C@H](CCCC)NC(=O)CNC(=O)[C@H](CCC(=O)O)NC(=O)C(C)(C)NC(=O)C(C)(C)NC(=O)[C@@H](NC(=O)[C@H](CCCCNC(C)=O)NC(=O)C(C)(C)NC(=O)[C@H](CCCNC(=N)N)NC(=O)[C@@H](NC(=O)[C@H](CCCCN)NC(=O)[C@H](CCC(=O)O)NC(=O)[C@H](CCCNC(=N)N)NC(=O)CNC(=O)[C@H](CCC(=O)O)NC(=O)[C@H](CC(C)C)NC(C)=O)C(C)C)[C@@H](C)CC)[C@@H](C)O)C(N)=O)C(=O)O)C(=O)O)C(=O)O"}, "B4": {"name": "peptide of SEQ ID NO: 37 (peptide)", "peptide": "Ac-LEGREKVR[Aib]K(Ac)I[Aib][Aib]EG[Nle]ST[1Nal]S[Aib]RKK(Ac)[PEG12]K([γGlu-γGlu-γGlu-Stearoyl])-NH2", "SMILES": "CCCCCCCCCCCCCCCCCC(=O)N[C@@H](CCC(=O)N[C@@H](CCC(=O)N[C@@H](CCC(=O)NCCCC[C@H](NC(=O)CCOCCOCCOCCOCCOCCOCCOCCOCCOCCOCCOCCOCCNC(=O)[C@H](CCCCNC(C)=O)NC(=O)[C@H](CCCCN)NC(=O)[C@H](CCCNC(=N)N)NC(=O)C(C)(C)NC(=O)[C@H](CO)NC(=O)[C@H](Cc1cccc2ccccc12)NC(=O)[C@@H](NC(=O)[C@H](CO)NC(=O)[C@H](CCCC)NC(=O)CNC(=O)[C@H](CCC(=O)O)NC(=O)C(C)(C)NC(=O)C(C)(C)NC(=O)[C@@H](NC(=O)[C@H](CCCCNC(C)=O)NC(=O)C(C)(C)NC(=O)[C@H](CCCNC(=N)N)NC(=O)[C@@H](NC(=O)[C@H](CCCCN)NC(=O)[C@H](CCC(=O)O)NC(=O)[C@H](CCCNC(=N)N)NC(=O)CNC(=O)[C@H](CCC(=O)O)NC(=O)[C@H](CC(C)C)NC(C)=O)C(C)C)[C@@H](C)CC)[C@@H](C)O)C(N)=O)C(=O)O)C(=O)O)C(=O)O"}, "B5": {"name": "peptide of SEQ ID NO: 38 (peptide)", "peptide": "Ac-LEGREKVRAK(Ac)I[Aib][Aib]EG[Nle]STWS[Aib]RK[PEG12]K([γGlu-γGlu-γGlu-Palmitoyl])-NH2", "SMILES": "CCCCCCCCCCCCCCCC(=O)N[C@@H](CCC(=O)N[C@@H](CCC(=O)N[C@@H](CCC(=O)NCCCC[C@H](NC(=O)CCOCCOCCOCCOCCOCCOCCOCCOCCOCCOCCOCCOCCNC(=O)[C@H](CCCCN)NC(=O)[C@H](CCCNC(=N)N)NC(=O)C(C)(C)NC(=O)[C@H](CO)NC(=O)[C@H](Cc1c[nH]c2ccccc12)NC(=O)[C@@H](NC(=O)[C@H](CO)NC(=O)[C@H](CCCC)NC(=O)CNC(=O)[C@H](CCC(=O)O)NC(=O)C(C)(C)NC(=O)C(C)(C)NC(=O)[C@@H](NC(=O)[C@H](CCCCNC(C)=O)NC(=O)[C@H](C)NC(=O)[C@H](CCCNC(=N)N)NC(=O)[C@@H](NC(=O)[C@H](CCCCN)NC(=O)[C@H](CCC(=O)O)NC(=O)[C@H](CCCNC(=N)N)NC(=O)CNC(=O)[C@H](CCC(=O)O)NC(=O)[C@H](CC(C)C)NC(C)=O)C(C)C)[C@@H](C)CC)[C@@H](C)O)C(N)=O)C(=O)O)C(=O)O)C(=O)O"}, "B6": {"name": "peptide of SEQ ID NO: 39 (peptide)", "peptide": "Ac-LEGREKVRAK(Ac)I[Aib][Aib]EG[Nle]STWXKRKK(Ac)[PEG12]K([γGlu-γGlu-γGlu-γGlu-Stearoyl])-NH2", "modifications": "not fully specified (some residues); printed as Ac-L-E-G-R-E-K-V-R-A-K(Ac)-I-Aib-Aib-E-G-Nle-S-T-W-Mse-K-R-K-K(Ac)-PEG12-K(gE-gE-gE-gE-Stea)-NH2"}, "B7": {"name": "peptide of SEQ ID NO: 40 (peptide)", "peptide": "Ac-LEGREKVRAK(Ac)I[Aib][Aib]EG[Nle]STWXXRKK(Ac)[PEG12]K([γGlu-γGlu-γGlu-γGlu-Stearoyl])-NH2", "modifications": "not fully specified (some residues); printed as Ac-L-E-G-R-E-K-V-R-A-K(Ac)-I-Aib-Aib-E-G-Nle-S-T-W-Mse-Mly-R-K-K(Ac)-PEG12-K(gE-gE-gE-gE-Stea)-NH2"}, "B8": {"name": "peptide of SEQ ID NO: 41 (peptide)", "peptide": "Ac-LEGREKVRAK(Ac)I[Aib][Aib]EG[Nle]STWX[Aib]RKK(Ac)[PEG12]K([γGlu-γGlu-γGlu-Stearoyl])-NH2", "modifications": "not fully specified (some residues); printed as Ac-L-E-G-R-E-K-V-R-A-K(Ac)-I-Aib-Aib-E-G-Nle-S-T-W-Mse-Aib-R-K-K(Ac)-PEG12-K(gE-gE-gE-Stea)-NH2"}},
  "target": "T1, RXFP1 receptor (UniProt Q9HBX9 1-757, limits assumed)",
  "T1 sequence (looked up)": "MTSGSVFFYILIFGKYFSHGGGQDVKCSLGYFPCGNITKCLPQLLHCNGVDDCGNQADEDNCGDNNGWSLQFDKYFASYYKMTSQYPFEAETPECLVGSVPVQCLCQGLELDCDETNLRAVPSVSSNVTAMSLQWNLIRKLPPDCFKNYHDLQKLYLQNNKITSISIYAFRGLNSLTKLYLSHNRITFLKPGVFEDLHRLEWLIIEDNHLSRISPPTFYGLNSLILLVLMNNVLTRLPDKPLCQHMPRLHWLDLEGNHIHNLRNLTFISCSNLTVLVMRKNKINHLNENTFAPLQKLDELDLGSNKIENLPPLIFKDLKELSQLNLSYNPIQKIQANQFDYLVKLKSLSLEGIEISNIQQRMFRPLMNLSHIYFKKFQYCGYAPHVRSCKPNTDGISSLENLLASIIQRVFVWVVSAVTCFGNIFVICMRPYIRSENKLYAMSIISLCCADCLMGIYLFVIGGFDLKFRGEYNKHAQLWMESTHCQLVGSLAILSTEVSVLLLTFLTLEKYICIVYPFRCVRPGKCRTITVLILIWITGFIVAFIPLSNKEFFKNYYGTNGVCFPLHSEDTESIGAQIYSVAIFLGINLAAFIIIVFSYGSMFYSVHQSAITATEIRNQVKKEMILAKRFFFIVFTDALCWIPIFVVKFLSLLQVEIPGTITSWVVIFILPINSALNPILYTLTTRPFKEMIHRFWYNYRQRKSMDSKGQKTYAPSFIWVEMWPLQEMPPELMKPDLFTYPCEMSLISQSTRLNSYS",
  "test": "cell-based or functional assay",
  "note": "*1 amine or outer side, *2 acyl side, *3 side chain or, on linkers, in order; H or OH if unused. Side-chain parts run from the residue outwards. [ ]: non-standard residue; d: D form. The star is where a group is joined. PEG12 = NCCOCCOCCOCCOCCOCCOCCOCCOCCOCCOCCOCCOCCC(=O)O; γGlu = O=C(O)[C@H](CCC(=O)[*:2])N[*:1]; 1Nal = N[C@@H](Cc1cccc2ccccc12)C(=O)O; Stearoyl = CCCCCCCCCCCCCCCCCC(=O)*; Palmitoyl = CCCCCCCCCCCCCCCC(=O)*; Nle = CCCC[C@H](N)C(=O)O; Aib = CC(C)(N)C(=O)O",
  "data": [
    {"binder": "B1", "values": [
      {"measurement": "EC50 (nM), OVCAR 5 cells (cAMP)", "result": 1.69, "unit": "nM"},
      {"measurement": "EMax, OVCAR 5 cells (cAMP)", "result": 95, "unit": "%"}
    ]},
    {"binder": "B2", "values": [
      {"measurement": "EC50 (nM), OVCAR 5 cells (cAMP)", "result": 31.7, "unit": "nM"},
      {"measurement": "EMax, OVCAR 5 cells (cAMP)", "result": 99, "unit": "%"}
    ]},
    {"binder": "B3", "values": [
      {"measurement": "EC50 (nM), OVCAR 5 cells (cAMP)", "result": 0.89, "unit": "nM"},
      {"measurement": "EMax, OVCAR 5 cells (cAMP)", "result": 84, "unit": "%"}
    ]},
    {"binder": "B4", "values": [
      {"measurement": "EC50 (nM), OVCAR 5 cells (cAMP)", "result": 2.49, "unit": "nM"},
      {"measurement": "EMax, OVCAR 5 cells (cAMP)", "result": 83, "unit": "%"}
    ]},
    {"binder": "B5", "values": [
      {"measurement": "EC50 (nM), OVCAR 5 cells (cAMP)", "result": 0.21, "unit": "nM"},
      {"measurement": "EMax, OVCAR 5 cells (cAMP)", "result": 89, "unit": "%"}
    ]},
    {"binder": "B6", "values": [
      {"measurement": "EC50 (nM), OVCAR 5 cells (cAMP)", "result": 0.03, "unit": "nM"},
      {"measurement": "EMax, OVCAR 5 cells (cAMP)", "result": 91, "unit": "%"}
    ]},
    {"binder": "B7", "values": [
      {"measurement": "EC50 (nM), OVCAR 5 cells (cAMP)", "result": 0.02, "unit": "nM"},
      {"measurement": "EMax, OVCAR 5 cells (cAMP)", "result": 90, "unit": "%"}
    ]},
    {"binder": "B8", "values": [
      {"measurement": "EC50 (nM), OVCAR 5 cells (cAMP)", "result": 0.09, "unit": "nM"},
      {"measurement": "EMax, OVCAR 5 cells (cAMP)", "result": 87, "unit": "%"}
    ]}
  ]
}
